Reference: patent US12648572B2, “Proteolytically stable U1-agatoxin-Ta1b variant polypeptides for pest control” (Vestaron Corporation, priority 2020, dated 2026)
Values joined by “and” are separate entries in the source; they are usually repeats but may differ in a detail not shown here. Equal values may be shown once.

How the values were obtained:
[1] = test system: Manduca Gut Extract (MGE); assay: Manduca Gut Extract (MGE) digest of TVPs; assay type: in vitro ADME, Manduca sexta; details: for Fold Stability Improvement: in the presence of MGE, relative to Ta1b; for Half Life (min) Manduca Gut Extract (MGE): 1 mg/mL TVP, 1/10 diluted MGE, 50 mM Tris-HCl pH 8.8; for Fold Change (MGE): half life relative to WT Ta1b
Method: (§1) To determine the stability of TVPs when exposed to lepidopteran gut proteases. Briefly, 5th instar Manduca sexta were dissected by making a small incision to the intestinal lining such that gut contents could be collected in a tube. Multiple dissections were pooled and kept on ice for immediate use, or stored at −80° C. for future use. The isolated midgut (referred to hereinafter as Manduca Gut Extract, or MGE) was then for digest assays. Next, 1 mg/mL TVP was incubated with 0.1 mg/mL bovine trypsin, or 1/10 diluted MGE with 50 mM Tris-HCl, pH 8.8 to maintain alkaline pH. Time points were taken and the digest quenched with the addition of 200 mM HCl. Degradation was quantified by HPLC analysis and rates were determined by fit to a single exponential decay.
(§2) TVPs were assessed for stability in the presence of MGE (as described above). Activity was assessed by injection into houseflies (Musca domestica): […] intrathoracically into houseflies with an average mass of 18 mg. The dose required for 50% knockdown and mortality was determined at 24 hour post-injection.

[2] = test system: houseflies (Musca domestica); assay: Housefly injection assay; assay type: in vivo; details: for Activity relative to wild-type Ta1b, in words: housefly injection; for Fold Activity Reduction: housefly intrathoracic injection, 24 hour post-injection, relative to wild-type Ta1b; for Fly KD50: dose for 50% knockdown, 24 hours post-injection
Method: as §2
Activity of the TVPs identified in the mutant stability assay were assessed by injection into houseflies (Musca domestica). Wild-type Ta1b and the TVPs with amino acid substitutions at positions R9Q and R9N were injected intrathoracically into houseflies with an average mass of 18 mg, at an injection dose of 0.5 μL of toxin or control. The dose of TVP required for 50% knockdown (KD50) was then determined at 24-hours post-injection. […] FIG. 2.
The TVPs: (1) TVP-R9Q; (2) TVP-R9QΔG; (3) TVP-R9Q/T43A/ΔG; (4) TVP-R9Q/T43A; and (5) TVP-R9Q/T43A/ΔK-G, were analyzed in a housefly injection assay. Housefly injections were performed as previously described herein.

bovine trypsin = target: T1, bovine trypsin (Bos taurus, UniProt P00760); assay: Bovine trypsin digest of TVPs; assay type: in vitro ADME; details: for Half Life (min) Bovine Trypsin: 1 mg/mL TVP, 0.1 mg/mL bovine trypsin, 50 mM Tris-HCl pH 8.8; for Trypsin digestion, in words: alanine scan of basic amino acids; for Fold Change (Trypsin): half life relative to WT Ta1b
T1 sequence (P00760 24-246): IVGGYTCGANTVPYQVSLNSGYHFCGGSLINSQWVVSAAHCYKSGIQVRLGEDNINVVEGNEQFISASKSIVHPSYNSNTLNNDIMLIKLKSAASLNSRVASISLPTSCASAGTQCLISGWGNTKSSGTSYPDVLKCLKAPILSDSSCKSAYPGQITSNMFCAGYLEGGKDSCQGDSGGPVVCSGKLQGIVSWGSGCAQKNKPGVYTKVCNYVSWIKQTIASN
Method: as §1
Lepidopteran gut contains trypsin-like proteases that cut after Arg or Lys amino acids; without wishing to be bound by any particular theory, we hypothesized that singly mutating these amino acids to alanine could identify the site(s) that are causing degradation in lepidopteran gut. To test the foregoing hypothesis, TVPs were created by individually mutating each basic amino acid to alanine present in the wild-type Ta1b amino acid sequence. Next, the stability of each of these TVPs was assessed by confronting the TVPs with the digestion conditions as described above.

[3] = test system: Helicoverpa gut extract (HGE); assay: Helicoverpa gut extract (HGE) digest, position 9 scan; assay type: in vitro ADME, Helicoverpa zea; details: for Half-Life: 30 mM Tris-HCl pH 8.8, time points 0, 3, 22.5 hours
Method: To determine the stability of TVPs when exposed to lepidopteran gut proteases, early fifth instar Helicoverpa zea larvae were dissected to remove the intact digestive tract from other tissues and hemolymph. To obtain the Helicoverpa gut extract (HGE), a small incision was made to the intestinal lining such that gut contents could be collected in a tube. Multiple dissections were pooled and kept on ice for immediate use, or stored at −80° C. for future use.
Wild-type Ta1b (SEQ ID NO: 1) was used as a template, and mutated at amino acid substitution at position 9, (i.e., R9; SEQ ID NO: 1) to produce the TVPs evaluated here; these TVPs have a substitution of the arginine at position 9 (i.e., R9) of the wild-type amino acid sequence (SEQ ID NO: 1), with one of the amino acids F, P, Y, K, W, H, A, G, N, L, D, V, M, I, Q, C, E, T, and S; in addition, a TVP with an R9Q+T43A mutation (relative to wild-type Ta1b) was likewise evaluated (SEQ ID NO: 85).
The TVPs described above and shown in Table 19 were confronted with Helicoverpa gut extract (HGE) to simulate digestion in the lepidopteran gut environment. Here, the TVPs were incubated with 6× diluted amount of HGE obtained from Helicoverpa deep well cell growths. The 6× diluted UGE was supplemented with 30 mM Tris-HCl, pH 8.8, to maintain the alkaline pH of the Helicoverpa gut environment.
Samples of the digested TVPs were collected at time points of 0, 3, and 22.5 hours. To quench the digestion process, 30 mM Glycine, pH 2.0 was added to the samples, and the samples of the digested TVPs were immediately analyzed using reverse-phase HPLC to quantify the TVP peak area.

[4] = test system: corn earworm (Helicoverpa zea); assay: Corn earworm injection assay; assay type: in vivo; details: fourth instar larvae, 24 hours after injection; ± standard error of the mean
Method: First, WT Ta1b (WT) and the R9Q mutant of Ta1b (TVP-R9Q) were evaluated in a lepidopteran injection assay. The experimental unit consisted of 8 injected individual corn earworm (Helicoverpa zea) per peptide dose. There were four experimental replicates per peptide. Prior to injection, corn earworm larvae were reared to their fourth instar on standard lepidoptera diet. The larvae were weighed to determine accurate dose calculations. The exact doses varied slightly between replicates because of variations in corn earworm larvae mass, but the approximate doses injected were: 1000, 2000, 4000, and 8000 pmol/g. Injections were performed using a hand microapplicator and a syringe fitted with a 30 gauge needle. Larvae were injected at the base of one of their most posterior prolegs. Larvae were injected with 1 μL of treatment solution.
After injection, larvae were placed in a well of a 32-well tray filled with 5 mL of standard lepidoptera diet. The trays were then placed in a 28° C. Incubator. The condition of the larvae were evaluated 24 hours after injection.

[5] = test system: neonate corn earworm (Helicoverpa zea); assay: Corn earworm oral foliar bioassay; assay type: in vivo; details: sprayed lettuce leaf discs, fourth day, ± standard error of the mean
Method: In the oral foliar bioassay, the experimental unit consisted of 12 leaf discs (per peptide concentration) sprayed (front and back) with a total spray volume of 5.5 mL (2.75 mL for each side) on which neonate corn earworm (Helicoverpa zea) were allowed to feed. There were four experimental replicates per peptide.
Romaine lettuce was cut into 30 mm diameter disks, and then sterilized using a 140 ppm bleach solution; the disks were then triple rinsed in water. The romaine lettuce disks were then pinned to a Styrofoam board and sprayed with a given treatment; the disks were flipped, sprayed again, allowed to dry, and placed in the arena.
The arena was 32-well rearing tray containing 5 mL of 1% agar. One romaine lettuce disk was placed in each well, with a single first instar corn earworm (Helicoverpa zea) per leaf disk. The trays were then placed in a 28° C. Incubator.
Mortality of the corn earworms was evaluated on the fourth day after spraying and larvae application to the leaf discs. Larvae were scored as either alive (moving and feeding normally) or dead (immobile, discolored).

Substance | Fold Stability Improvement [1] [fold] | Activity relative to wild-type Ta1b, in words [2] | Fold Activity Reduction [2] | Half Life (min) Bovine Trypsin (bovine trypsin) [min] | further results
A8S: TVP with substitution A8S (EPDEICRSRMTNKEFTYKSNVCNNCGDQVAACEAECFRNDVYTACHEAQKG; listed as Eratigena agrestis) | 12.1 | maintain activity similar to the native Ta1b | 1.3 fold |  | Digestibility by Manduca Gut Extract (MGE), in words [1]: significant reduction in digestibility
EPDEICRAEMTNKEFTYKSNVCNNCGDQVAACEAECFRNDVYTACHEAQKG (TVP-R9E) |  |  | >10 fold |  | 
A8N: TVP with substitution A8N (EPDEICRNRMTNKEFTYKSNVCNNCGDQVAACEAECFRNDVYTACHEAQKG; listed as Eratigena agrestis) | 1.8 |  |  |  | 
K18A: TVP: wild-type Ta1b with basic amino acid K18 mutated to alanine (EPDEICRARMTNKEFTYASNVCNNCGDQVAACEAECFRNDVYTACHEAQKG; listed as Eratigena agrestis) |  |  |  | 1194 | Trypsin digestion, in words (bovine trypsin): modest, albeit significant reduction in digestibility; Fold Change (Trypsin) (bovine trypsin): 4.1 fold
EPDEICRATMTNKEFTYKSNVCNNCGDQVAACEAECFRNDVYTACHEAQKG (TVP-R9T) [T (Position 9)] |  |  |  |  | Result (Stable/Unstable) ([3]; 6× diluted HGE): Stable; Half-Life ([3]; 6× diluted HGE): 95.8 h; Gut extract digestion, in words ([3]; 6× diluted gut extract, relative to wild type Ta1b): completely abolished UGE digestion
EPDEICRARMTNKEFTYKSNVCNNCGDQVAACEAECFRNDVYTACHEAQKG (listed as Eratigena agrestis) [WT Ta1b, reference compound] |  |  |  | 288 | Half Life (min) Manduca Gut Extract (MGE) [1]: 1.5 min; Fly KD50 [2]: 167 pmol/g; Injection LD50 [4]: 2933 ± 827 pmol/g; Oral Bioassay % Mortality at 3 ppt [5]: 6 ± 3%; Half-Life ([3]; 6× diluted HGE): 1.9 h
EPDEICRAHMTNKEFTYKSNVCNNCGDQVAACEAECFRNDVYTACHEAQKG (TVP-R9H) | 16.2 |  | 2.5 fold |  | 
R38A: TVP: wild-type Ta1b with basic amino acid R38 mutated to alanine (EPDEICRARMTNKEFTYKSNVCNNCGDQVAACEAECFANDVYTACHEAQKG; listed as Eratigena agrestis) | 8.6 | did not show any reduction in activity | 1.0 fold | 1860 | Trypsin digestion, in words (bovine trypsin): modest, albeit significant reduction in digestibility; Fold Change (Trypsin) (bovine trypsin): 6.5 fold; Half Life (min) Manduca Gut Extract (MGE) [1]: 19 min; Fold Change (MGE) [1]: 8.6 fold
T11P: TVP with substitution T11P (EPDEICRARMPNKEFTYKSNVCNNCGDQVAACEAECFRNDVYTACHEAQKG; listed as Eratigena agrestis) | 92.9 | maintain activity similar to the native Ta1b | 1.4 fold |  | Digestibility by Manduca Gut Extract (MGE), in words [1]: significant reduction in digestibility
EPDEICRAAMTNKEFTYKSNVCNNCGDQVAACEAECFRNDVYTACHEAQKG (TVP-R9A) | 247 |  | 9 fold and 8.7 fold | >6000 | Trypsin digestion, in words (bovine trypsin): completely abolished trypsin digestion; Fold Change (Trypsin) (bovine trypsin): >20 fold; Half Life (min) Manduca Gut Extract (MGE) [1]: 370 min; Fold Change (MGE) [1]: 247 fold
TVP-R9Q/ΔG: TVP-R9Q with the C-terminal glycine removed (EPDEICRAQMTNKEFTYKSNVCNNCGDQVAACEAECFRNDVYTACHEAQK; C-terminal Gly deleted; TVP-R9QdG) |  |  |  |  | Fly KD50 [2]: 136 pmol/g
EPDEICRANMTNKEFTYKSNVCNNCGDQVAACEAECFRNDVYTACHEAQKG (TVP-R9N) | >50 | maintain activity similar to the native Ta1b | 1.5 fold |  | Digestibility by Manduca Gut Extract (MGE), in words [1]: significant reduction in digestibility
